First the molecules themselves.
T1: human TL1A (Fitzgerald #30R-AT070) (human, UniProt O95150 72-251, limits assumed)
T1 construct: Coated on the ELISA plate at 1 ug/mL; also called TNFSF15
T1 sequence (looked up): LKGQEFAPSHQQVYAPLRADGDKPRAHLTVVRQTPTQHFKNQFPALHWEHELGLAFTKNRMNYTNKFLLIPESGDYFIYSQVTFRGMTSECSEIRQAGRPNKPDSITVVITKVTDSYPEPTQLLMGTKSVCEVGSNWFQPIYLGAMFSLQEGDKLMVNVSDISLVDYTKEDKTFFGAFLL

B1: A114 (antibody, human IgG1, V domains shown)
VH: QVQLVQSGAEVKKPGASVKVSCKASGFDIQDTYMHWVRQAPGQGLEWMGRIEPASGHIKYDPKFQVRVTMTRDTSTSTVYMELSSLRSEDTAVYYCARSGGLPDWWGQGTTVTVSS
VL: EIVLTQSPGTLSLSPGERATLSCRASSSVSYMYWYQQKPGQAPRPWIYATSNLASGIPDRFSGSGSGTDFTLTISRLEPEDFAVYYCQQWEGNPRTFGGGTKLEIK
notes: human IgG1/kappa (pFuse vectors), culture supernatant
B2: A34 (antibody, human IgG1, V domains shown)
VH: B1 VH with A40R, M48I, E52D, I58T, V68A, M70I, R72T, V79A, M81L, W105V
VL: B1 VL with L13A, L21M, I57V, F70Y, L77V, E91S
notes: as for B1
B3: A36 (antibody, human IgG1, V domains shown)
VH: B1 VH with M48I, E52D, I58T, V68A, M70I, R72T, V79A, M81L, W105V
VL: B1 VL with L13A, L21M, I57V, F70Y, L77V, E91S
notes: as for B1
B4: A37 (antibody, human IgG1, V domains shown)
VH: B1 VH with R38K, A40R, E52D, I58T, V68A, M70I, R72T, V79A, M81L, W105V
VL: B1 VL with L13A, L21M, I57V, F70Y, L77V, E91S
notes: as for B1
B5: A35 (antibody, human IgG1, V domains shown)
VH: B1 VH with R38K, M48I, E52D, I58T, V68A, M70I, R72T, V79A, M81L, W105V
VL: B1 VL with L13A, L21M, I57V, F70Y, L77V, E91S
notes: as for B1
B6: A30 (antibody, human IgG1, V domains shown)
VH: QVQLVQSGAEVKKPGASVKVSCKASGFDIQDTYMHWVKQRPGQGLEWIGRIDPASGHTKYDPKFQVRATITTDTSTSTAYLELSSLRSEDTAVYYCARSGGLPDVWGQGTTVTVSS
VL: B1 VL with P45L, W46L, E91K
notes: as for B1
B7: A137 (antibody, human IgG1, V domains shown)
VH: B1 VH
VL: B1 VL with P45L, W46L, E91S, G92R
notes: as for B1
B8: A139 (antibody, human IgG1, V domains shown)
VH: B6 VH with K38R, I48M, A68V
VL: B1 VL with P45L, W46L, E91S, G92R
notes: as for B1
B9: A136 (antibody, human IgG1, V domains shown)
VH: B1 VH with R38K, V66G
VL: B1 VL with W46L, E91K
notes: as for B1
B10: A151 (antibody, human IgG1, V domains shown)
VH: B1 VH with V68A, M70I
VL: B1 VL with W46L
notes: as for B1
B11: A133 (antibody, human IgG1, V domains shown)
VH: B1 VH
VL: B1 VL with W46L, E91K
notes: as for B1
B12: A126 (antibody, human IgG1, V domains shown)
VH: B6 VH with I48M, A68V, T72R
VL: B1 VL with P45L, W46L, E91K
notes: as for B1
B13: A141 (antibody, human IgG1, V domains shown)
VH: B6 VH with K38R, I48M, A68V, T72R
VL: B1 VL with P45L, W46L, E91S, G92R
notes: as for B1
B14: A129 (antibody, human IgG1, V domains shown)
VH: B6 VH with K38R, I48M, A68V
VL: B1 VL with P45L, W46L, E91K
notes: as for B1
B15: A146 (antibody, human IgG1, V domains shown)
VH: B1 VH with R38K, V66G
VL: B1 VL with W46L
notes: as for B1
B16: A155 (antibody, human IgG1, V domains shown)
VH: B1 VH
VL: B1 VL
notes: as for B1
B17: A117 (antibody, human IgG1, V domains shown)
VH: B1 VH with E52D, V66G
VL: B1 VL
notes: as for B1
B18: A122 (antibody, human IgG1, V domains shown)
VH: B6 VH with K38R, T72R
VL: B1 VL with P45L, W46L, E91K
notes: as for B1
B19: A143 (antibody, human IgG1, V domains shown)
VH: B1 VH with V66G
VL: B1 VL with P45L, W46L
notes: as for B1
B20: A130 (antibody, human IgG1, V domains shown)
VH: B1 VH
VL: B1 VL
notes: as for B1
B21: A140 (antibody, human IgG1, V domains shown)
VH: B6 VH with K38R, I48M, A68V
VL: B1 VL with P45L, W46L
notes: as for B1
B22: A152 (antibody, human IgG1, V domains shown)
VH: B1 VH with V66G, V68A, M70I, R72T
VL: B1 VL with W46L
notes: as for B1
B23: A149 (antibody, human IgG1, V domains shown)
VH: B1 VH with V68A
VL: B1 VL with W46L
notes: as for B1
B24: A142 (antibody, human IgG1, V domains shown)
VH: B6 VH with K38R, I48M, A68V, T72R
VL: B1 VL with P45L, W46L
notes: as for B1
B25: A119 (antibody, human IgG1, V domains shown)
VH: B1 VH with I58T, V66G
VL: B1 VL
notes: as for B1
B26: A135 (antibody, human IgG1, V domains shown)
VH: B1 VH with V66G, V79A
VL: B1 VL with W46L, E91K
notes: as for B1
B27: A115 (antibody, human IgG1, V domains shown)
VH: B1 VH with V68A
VL: B1 VL
notes: as for B1
B28: A125 (antibody, human IgG1, V domains shown)
VH: B6 VH with I48M, T72R
VL: B1 VL with P45L, W46L, E91K
notes: as for B1
B29: A124 (antibody, human IgG1, V domains shown)
VH: B6 VH with K38R, A68V
VL: B1 VL with P45L, W46L, E91K
notes: as for B1
B30: A154 (antibody, human IgG1, V domains shown)
VH: B1 VH with R38K, V66G
VL: B1 VL
notes: as for B1
B31: A153 (antibody, human IgG1, V domains shown)
VH: B1 VH with V66G, V79A
VL: B1 VL
notes: as for B1
B32: A128 (antibody, human IgG1, V domains shown)
VH: B6 VH with K38R, I48M, A68V, T72R
VL: B1 VL with P45L, W46L, E91K
notes: as for B1
B33: A121 (antibody, human IgG1, V domains shown)
VH: B6 VH with K38R, I48M
VL: B1 VL with P45L, W46L, E91K
notes: as for B1
B34: A150 (antibody, human IgG1, V domains shown)
VH: B1 VH with V66G, V68A
VL: B1 VL with W46L
notes: as for B1
B35: A134 (antibody, human IgG1, V domains shown)
VH: B1 VH with V68A
VL: B1 VL with W46L, E91K
notes: as for B1
B36: A118 (antibody, human IgG1, V domains shown)
VH: B1 VH with M48I, E52D, V66G
VL: B1 VL
notes: as for B1
B37: A123 (antibody, human IgG1, V domains shown)
VH: B6 VH with K38R, A68V, T72R
VL: B1 VL with P45L, W46L, E91K
notes: as for B1
B38: A138 (antibody, human IgG1, V domains shown)
VH: B1 VH with V68A
VL: B1 VL with P45L, W46L, E91S, G92R
notes: as for B1
B39: A120 (antibody, human IgG1, V domains shown)
VH: B1 VH with I58V, V66G
VL: B1 VL
notes: as for B1
B40: A132 (antibody, human IgG1, V domains shown)
VH: B1 VH with V66G, V68A
VL: B1 VL with W46L, E91K
notes: as for B1
B41: A147 (antibody, human IgG1, V domains shown)
VH: B1 VH with R38K, A40R, V66G
VL: B1 VL with W46L
notes: as for B1
B42: A116 (antibody, human IgG1, V domains shown)
VH: B1 VH with M70I
VL: B1 VL
notes: as for B1
B43: A145 (antibody, human IgG1, V domains shown)
VH: B1 VH with V66G, V79A
VL: B1 VL with W46L
notes: as for B1
B44: A127 (antibody, human IgG1, V domains shown)
VH: B6 VH with I48M, A68V
VL: B1 VL with P45L, W46L, E91K
notes: as for B1

Changes are numbered by the printed parent chain.

The target in this experiment is T1, human TL1A (Fitzgerald #30R-AT070). Kind of experiment: ELISA titration, coated human TL1A, culture supernatant. (An ELISA detects its analyte on a solid surface through an enzyme-linked reagent.)
By Kd is commonly meant the constant that tells how readily two partners part at equilibrium. Lower therefore signals tighter binding. The molecule B1 gave an equilibrium dissociation constant (Kd) of 51 pM.

As for B2, the Kd is below 50 pM.

For B3, the Kd was below 50 pM.

Molecule B4 came in with an equilibrium dissociation constant (Kd) of 34 pM.

With B5, the affinity, expressed as Kd, was 72 pM.

For B6, the Kd was found to be 77 pM. This Kd and that of the molecule before are within 1.5-fold of each other.

For the molecule B7, the Kd is 50 pM. This Kd is about 1.5-fold lower than that of the molecule before.

B8 registered a dissociation constant Kd of 74 pM. This Kd and that of the molecule before are within 1.5-fold of each other.

On to B9, for which the Kd is 53 pM.

In turn, B10 returned a Kd of 57 pM. The Kd values of the last two molecules are within 1.5-fold of each other.

Regarding B11, binding was characterised by a dissociation constant (Kd) of 58 pM.

B12 returned a Kd of 123 pM.

B13 yielded a Kd of 108 pM.

For B14, binding was put at a Kd of 99 pM. The Kd values of the last two molecules are within 1.5-fold of each other.

The molecule B15 came in with an equilibrium dissociation constant (Kd) of 65 pM.

Regarding B16, the affinity, expressed as Kd, was 67 pM. This Kd and that of the molecule before are within 1.5-fold of each other.

Take B17: binding was put at a Kd of 94 pM.

In turn, B18 gave a Kd of 112 pM.

Regarding B19, the Kd was determined as 85 pM.

On to B20, for which binding was put at a Kd of 75 pM.

B21 showed an equilibrium dissociation constant (Kd) of 73 pM.

In turn, B22 showed a Kd of 58 pM.

Consider B23, for which the Kd stood at 48 pM.

For the molecule B24, the affinity, expressed as Kd, was 126 pM.

Molecule B25 displayed an equilibrium dissociation constant (Kd) of 87 pM.

B26 gave a Kd of 56 pM.

B27: binding was put at a Kd of 58 pM.

B28 returned a Kd of 116 pM.

In turn, B29 showed a Kd of 91 pM.

As to B30, the equilibrium dissociation constant (Kd) amounted to 66 pM.

Consider B31, for which the equilibrium dissociation constant (Kd) is 49 pM.

For the molecule B32, the Kd was found to be 111 pM.

Molecule B33 showed a Kd of 106 pM.

For the molecule B34, binding was characterised by a dissociation constant (Kd) of 59 pM.

B35 returned a Kd of 55 pM.

Molecule B36 displayed a Kd of 83 pM. Against the preceding molecule, the Kd is about 1.5-fold higher.

The molecule B37 had a Kd of 104 pM.

In turn, B38 returned a Kd of 69 pM. This Kd lies about 1.5-fold lower than the previous one.

B39 yielded a dissociation constant (Kd) of 85 pM.

B40 registered a Kd of 62 pM.

As to B41, the dissociation constant (Kd) turned out to be 63 pM.

B42 came in with a dissociation constant Kd of 53 pM. This Kd and that of the molecule before are within 1.5-fold of each other.

With B43, binding was characterised by a dissociation constant (Kd) of 70 pM. This Kd and that of the molecule before are within 1.5-fold of each other.

The molecule B44 gave a Kd of 70 pM.

The values above are taken from US20260216326A1 (PROMETHEUS BIOSCIENCES, published 2026).
